Laboratory results: US20140087995A1 (published 2014)
Changes are numbered by the printed parent chain. Numbered stars: 1 amine (or outer) side, 2 acyl side, 3 side chain; on linkers, the order of the positions; unused ones are H or OH. Bridge positions count the residues as written; N and C are the ends. * marks the point of attachment. C20 diacid = O=C(O)CCCCCCCCCCCCCCCCCCC(=O)*; γGlu = O=C(O)[C@H](CCC(=O)[*:2])N[*:1]; AEEA = NCCOCCOCC(=O)O

T1: rat calcitonin receptor (rat, UniProt P32214 25-516)
T1 construct: whole, on cells; Used as membranes prepared from the transfected cells; also called rCTR; rat calcitonin (a) receptor
T1 sequence (looked up): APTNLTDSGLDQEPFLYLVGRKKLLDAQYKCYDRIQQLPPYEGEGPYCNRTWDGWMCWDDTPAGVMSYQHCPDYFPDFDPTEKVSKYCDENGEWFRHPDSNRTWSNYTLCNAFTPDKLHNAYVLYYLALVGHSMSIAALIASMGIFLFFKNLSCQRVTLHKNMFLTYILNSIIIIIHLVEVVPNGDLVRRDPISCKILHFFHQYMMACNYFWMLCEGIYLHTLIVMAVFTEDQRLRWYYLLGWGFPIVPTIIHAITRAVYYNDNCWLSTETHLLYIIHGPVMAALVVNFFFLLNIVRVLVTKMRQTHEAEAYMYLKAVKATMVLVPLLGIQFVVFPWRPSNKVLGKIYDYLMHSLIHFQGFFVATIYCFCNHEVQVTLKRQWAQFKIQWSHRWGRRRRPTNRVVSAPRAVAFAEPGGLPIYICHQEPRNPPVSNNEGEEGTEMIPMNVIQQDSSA

T2: rat amylin receptor (rat calcitonin receptor + rat RAMP 3) (rat, UniProt P32214 25-516; Q9JJ73 23-147)
T2 construct: whole, on cells; Used as membranes prepared from the transfected cells; also called rAmylin-R; rat amylin 3(a) receptor
T2 sequence (looked up) 1: T1 sequence (looked up)
T2 sequence (looked up) 2: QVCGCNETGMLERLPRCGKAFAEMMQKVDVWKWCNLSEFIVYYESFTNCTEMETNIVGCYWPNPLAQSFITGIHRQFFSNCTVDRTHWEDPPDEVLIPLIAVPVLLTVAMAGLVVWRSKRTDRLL

T3: human calcitonin receptor (human, UniProt P30988 25-474)
T3 construct: whole, on cells; Used as membranes prepared from the transfected cells (Assay VII); also called hCTR; hCT
T3 sequence (looked up): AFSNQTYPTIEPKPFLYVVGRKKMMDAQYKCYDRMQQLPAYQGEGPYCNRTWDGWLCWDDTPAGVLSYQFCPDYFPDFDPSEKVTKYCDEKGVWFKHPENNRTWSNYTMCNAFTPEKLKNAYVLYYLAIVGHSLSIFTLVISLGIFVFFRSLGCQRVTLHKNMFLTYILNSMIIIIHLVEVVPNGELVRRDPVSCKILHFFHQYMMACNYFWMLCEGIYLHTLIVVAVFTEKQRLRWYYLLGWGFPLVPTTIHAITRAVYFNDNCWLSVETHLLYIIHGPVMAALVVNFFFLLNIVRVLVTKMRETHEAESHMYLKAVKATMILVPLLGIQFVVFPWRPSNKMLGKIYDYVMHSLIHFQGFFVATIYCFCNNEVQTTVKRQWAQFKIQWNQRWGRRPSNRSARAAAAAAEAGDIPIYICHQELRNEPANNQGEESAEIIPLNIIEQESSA

B1: N^α1-[(4S)-4-carboxy-4-(19-carboxynonadecanoylamino)butanoyl]-[Arg17,Pro21,Pro27,Arg34]-h-amylin (peptide)
peptide: KCNTATCATQRLANFLRHSSPNFGAIPSSTNVGRNTY
modifications: C20 diacid-gGlu acylated on the alpha amino group of the N-terminal residue (Lys 1); disulfide Cys2-Cys7; C-terminal amide
notes: Derivative of human amylin; also called compound 39
B2: N^α1-[(4S)-4-carboxy-4-(19-carboxynonadecanoylamino)butanoyl]-[Arg17,Pro21,Pro27,His34]-h-amylin (peptide)
peptide: B1 peptide with R34H
modifications: C20 diacid-gGlu acylated on the alpha amino group of the N-terminal residue (Lys 1); disulfide Cys2-Cys7; C-terminal amide
notes: Derivative of human amylin; also called compound 40
B3: N^α1-[(4S)-4-carboxy-4-(19-carboxynonadecanoylamino)butanoyl]-[Arg17,Pro21,Pro27,Lys35]-h-amylin (peptide)
peptide: B1 peptide with R34S, N35K
modifications: C20 diacid-gGlu acylated on the alpha amino group of the N-terminal residue (Lys 1); disulfide Cys2-Cys7; C-terminal amide
notes: Derivative of human amylin; also called compound 34
B4: N^α1-[(4S)-4-carboxy-4-(19-carboxynonadecanoylamino)butanoyl]-[Arg17,Pro21,Pro27,Glu35]-h-amylin (peptide)
peptide: B1 peptide with R34S, N35E
modifications: C20 diacid-gGlu acylated on the alpha amino group of the N-terminal residue (Lys 1); disulfide Cys2-Cys7; C-terminal amide
notes: Derivative of human amylin; also called compound 23
B5: N^α1-[2-[2-[2-[[2-[2-[2-[[(4S)-4-carboxy-4-(19-carboxynonadecanoylamino)butanoyl]amino]ethoxy]ethoxy]acetyl]amino]ethoxy]ethoxy]acetyl]-[Glu14,Arg17,Pro21,Pro27 … (peptide)
peptide: {C20 diacid-γGlu-AEEA-AEEA}-KCNTATCATQRLAEFLRHSSPNFGAIPSSTNVGSNTP-NH2
modifications: disulfide 2-7
SMILES: CC[C@H](C)[C@H](NC(=O)[C@H](C)NC(=O)CNC(=O)[C@H](Cc1ccccc1)NC(=O)[C@H](CC(N)=O)NC(=O)[C@@H]1CCCN1C(=O)[C@H](CO)NC(=O)[C@H](CO)NC(=O)[C@H](Cc1c[nH]cn1)NC(=O)[C@H](CCCNC(=N)N)NC(=O)[C@H](CC(C)C)NC(=O)[C@H](Cc1ccccc1)NC(=O)[C@H](CCC(=O)O)NC(=O)[C@H](C)NC(=O)[C@H](CC(C)C)NC(=O)[C@H](CCCNC(=N)N)NC(=O)[C@H](CCC(N)=O)NC(=O)[C@@H](NC(=O)[C@H](C)NC(=O)[C@@H]1CSSC[C@H](NC(=O)[C@H](CCCCN)NC(=O)COCCOCCNC(=O)COCCOCCNC(=O)CC[C@H](NC(=O)CCCCCCCCCCCCCCCCCCC(=O)O)C(=O)O)C(=O)N[C@@H](CC(N)=O)C(=O)N[C@@H]([C@@H](C)O)C(=O)N[C@@H](C)C(=O)N[C@@H]([C@@H](C)O)C(=O)N1)[C@@H](C)O)C(=O)N1CCC[C@H]1C(=O)N[C@@H](CO)C(=O)N[C@@H](CO)C(=O)N[C@H](C(=O)N[C@@H](CC(N)=O)C(=O)N[C@H](C(=O)NCC(=O)N[C@@H](CO)C(=O)N[C@@H](CC(N)=O)C(=O)N[C@H](C(=O)N1CCC[C@H]1C(N)=O)[C@@H](C)O)C(C)C)[C@@H](C)O
notes: Derivative of human amylin; also called compound 20

target: T1, rat calcitonin receptor; test: ratio IC50 rat calcitonin receptor / IC50 rat amylin receptor (Assays VIII and VI)

Binder | Ratio rCT/rAmylin binding
B1 | 54.5
B2 | 46.2
B3 | 52
B4 | 71.3
B5 | 6.4

target: T1, rat calcitonin receptor; test: SPA competition with 125I-calcitonin, membranes of BHK cells with rat calcitonin receptor (Assay VIII)

Binder | IC50 [nM]
B1 | 96.4
B2 | 69.2
B3 | 89.2
B4 | 79.9
B5 | 4.43

target: T2, rat amylin receptor (rat calcitonin …); test: SPA competition with 125I-rat amylin, membranes of BHK cells with rat calcitonin receptor + rat RAMP3 (Assay VI)

Binder | IC50 [nM]
B1 | 1.77
B2 | 1.5
B3 | 1.72
B4 | 1.12
B5 | 0.696

target: T3, human calcitonin receptor; test: ratio IC50 human calcitonin receptor / IC50 human amylin receptor (Assays VII and V)
Experimental: The resulting pellet was resuspended, homogenized and centrifuged (20.000 rpm, 15 min) in a buffer containing 20 mM Na-HEPES and 0.1 mM EDTA (pH 7.4, buffer 2). The resulting pellet was resuspended in buffer 2 and protein concentration was measured (BCA protein Assay, Pierce). The homogenate was kept cold during the whole procedure. The membranes were kept at −80° C. until use. The assay was performed in a 384 well Optiplate (PerkinElmer) in a total volume of 40 ul. Membranes were mixed with SPA beads. Final concentration of membranes 35 ng/μL final and SPA beads was 0.05 mg/well. Test-compounds were dissolved in DMSO and further diluted in assay buffer (50 mM Hepes, pH 7.4, 1 mM CaCl2, 5 mM MgCl₂, 0.1% OA and 0.02% Tween20). […] The final mixture was incubated with shaking at 400 rpm for 120 min at 25° C. prior to centrifugation (1500 rpm, 10 min). Samples were analyzed on TopCounter™ (Packard). The IC₅₀ was calculated using (one site binding competition analysis) GraphPad Prism5 as a measure of receptor affinity.
Membranes were prepared in the following way; the cells were rinsed with PBS and incubated with Versene for approximately 5 min before harvesting. The cells were flushed with PBS and the cell-suspension was centrifuged for 5 min at 1000 rpm. Cells were homogenized (Ultrathurrax) in a buffer containing 20 mM Na-HEPES and 10 mM EDTA (pH 7.4) and centrifuged at 20.000 rpm for 15 min. The resulting pellet was resuspended, homogenized and centrifuged (20.000 rpm, 15 min) in a buffer containing 20 mM Na-HEPES and 0.1 mM EDTA (pH 7.4, buffer 2). The resulting pellet was resuspended in buffer 2 and protein concentration was measured (BCA protein Assay, Pierce). The homogenate was kept cold during the whole procedure. The membranes were kept at −80° C. until use. Assay was performed in a 384 well Optiplate (PerkinElmer) in a total volume of 40 ul. Membranes were mixed with SPA beads.

Binder | Ratio hCT/hAmylin binding
B1 | 29
B2 | 31.1
B3 | 64.4
B4 | 25
B5 | 3.6
